Results taken from PMC2556791 (The Journal of Experimental Medicine, 2008).

Key:
[1] = target: mCMKLR1-HA on L1.2 transfectants (mouse) (UniProt P97468); assay: radioligand binding
[2] = target: huCCRL2-HA on L1.2 transfectants (human); assay: radioligand binding
[3] = target: mCCRL2 on freshly isolated mouse peritoneal mast cells (mouse (endogenous in peritoneal mast cells)) (UniProt O35457); assay: flow cytometry on cells
[4] = target: T1, mCCRL2-HA on L1.2 transfectants (mouse, UniProt O35457 1-360); assay: flow cytometry on cells
T1 sequence (looked up): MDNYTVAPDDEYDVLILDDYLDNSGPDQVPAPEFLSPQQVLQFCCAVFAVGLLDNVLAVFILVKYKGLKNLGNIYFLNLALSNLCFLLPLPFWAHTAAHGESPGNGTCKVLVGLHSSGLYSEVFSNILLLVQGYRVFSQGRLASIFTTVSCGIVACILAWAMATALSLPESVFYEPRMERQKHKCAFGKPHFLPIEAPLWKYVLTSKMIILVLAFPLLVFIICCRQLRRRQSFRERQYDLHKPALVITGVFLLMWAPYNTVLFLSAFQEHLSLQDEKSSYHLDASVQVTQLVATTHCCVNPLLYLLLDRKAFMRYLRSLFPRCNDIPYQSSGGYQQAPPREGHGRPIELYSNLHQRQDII

[5] = target: huCCRL2-HA on L1.2 transfectants (human); assay: flow cytometry on cells
[6] = target: T2, mCMKLR1-HA on L1.2 transfectants (mouse, UniProt P97468 1-371); assay: radioligand binding
T2 sequence (looked up): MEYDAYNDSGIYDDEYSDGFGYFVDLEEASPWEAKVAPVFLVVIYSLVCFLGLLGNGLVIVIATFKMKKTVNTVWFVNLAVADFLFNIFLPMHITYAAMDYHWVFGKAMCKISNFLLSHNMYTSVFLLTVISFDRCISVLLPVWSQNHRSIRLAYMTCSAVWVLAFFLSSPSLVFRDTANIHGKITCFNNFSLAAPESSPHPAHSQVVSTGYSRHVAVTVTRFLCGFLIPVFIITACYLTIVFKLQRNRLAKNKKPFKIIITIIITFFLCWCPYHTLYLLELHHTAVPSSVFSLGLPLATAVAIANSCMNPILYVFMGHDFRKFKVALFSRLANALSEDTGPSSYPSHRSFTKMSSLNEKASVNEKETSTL

[7] = target: T1, mCCRL2-HA on L1.2 transfectants; assay: radioligand binding

Molecule: C-terminal His8-tagged serum form human chemerin (NH2-ADPELTE……-COOH) (from UniProt Q99969 21-155) (ligand)
- EC50 [1]: 26.3 nM

Molecule: chemerin (unlabeled; form not specified) (from UniProt Q99969 21-157) (ligand)
- EC50 [2]: 0.2 nM
- EC50 [1]: 3.1 nM
- EC50 [3]: 21 nM

B1: untagged serum form human chemerin (NH2-ADPELTE…FAPH-COOH) (ligand)
chain: ADPELTEAQRRGLQVALEEFHKHPPVQWAFQETSVESAVDTPFPAGIFVRLEFKLQQTSCRKRDWKKPECKVRPNGRKRKCLACIKLGSEDKVLGRLVHCPIETQVLREAEEHQETQCLRVQRAGEDPHSFYFPGQFAPH
- EC50 [4]: 45 nM
- EC50 [5]: 7 nM

Molecule: YFPGQFAFS [bioactive 9-mer carboxyl-terminal chemerin peptide (residues 149–157, YFPGQFAFS)]
- EC50 [6]: 26.2 nM

B2: 125I-chemerin (residues 21–148) (ligand, human, UniProt Q99969 21-148, looked up)
chain: ELTEAQRRGLQVALEEFHKHPPVQWAFQETSVESAVDTPFPAGIFVRLEFKLQQTSCRKRDWKKPECKVRPNGRKRKCLACIKLGSEDKVLGRLVHCPIETQVLREAEEHQETQCLRVQRAGEDPHSF
modifications: 125I (radioiodinated; specific activity 97 Ci/g)
- Kd [7]: 1.6 nM
